Biological target: receptors on glutaraldehyde-fixed HeLa cells
Assay: competition ligand assay on fixed HeLa cells; 100 µg E. coli lysate (F11.2 cDNA); competitor: ^35 S-labeled trichomonad AP65; densitometry of fluorograms

Q: Which percent decrease of parasite AP65 binding does the source give for “recombinant AP65-1 adhesin expressed in E. coli from cDNA clone F11.2 (ligand)” here?
A: 55%

Reference: patent publication US5922563
